# Results from KR20160093503A (dated 2016).
# T1: DRS (Aspartyl-tRNA synthetase), purified recombinant (UniProt P14868 1-501, limits assumed)
# T1 construct: also called 아스파틸-tRNA 합성효소
# T1 sequence (looked up): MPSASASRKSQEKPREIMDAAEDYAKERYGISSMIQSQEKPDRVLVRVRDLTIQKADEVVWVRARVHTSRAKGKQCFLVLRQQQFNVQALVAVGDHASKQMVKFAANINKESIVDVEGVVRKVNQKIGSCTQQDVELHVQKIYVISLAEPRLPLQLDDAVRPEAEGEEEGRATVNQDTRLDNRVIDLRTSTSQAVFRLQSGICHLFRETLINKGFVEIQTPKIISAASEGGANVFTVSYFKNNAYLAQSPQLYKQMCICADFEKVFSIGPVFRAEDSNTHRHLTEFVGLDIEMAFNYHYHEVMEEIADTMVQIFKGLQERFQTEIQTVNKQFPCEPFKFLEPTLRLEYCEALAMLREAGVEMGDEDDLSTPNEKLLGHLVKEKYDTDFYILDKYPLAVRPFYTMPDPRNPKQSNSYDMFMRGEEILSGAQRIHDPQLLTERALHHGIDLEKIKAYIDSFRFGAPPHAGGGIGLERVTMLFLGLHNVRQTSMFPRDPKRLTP
# T2: EPRS WHEP domain (Glutamyl-prolyl tRNA synthetase), purified recombinant (UniProt P07814 749-956, limits assumed)
# T2 construct: domain: WHEP domain; also called 글루타밀-프로릴-tRNA 합성효소
# T2 sequence (looked up): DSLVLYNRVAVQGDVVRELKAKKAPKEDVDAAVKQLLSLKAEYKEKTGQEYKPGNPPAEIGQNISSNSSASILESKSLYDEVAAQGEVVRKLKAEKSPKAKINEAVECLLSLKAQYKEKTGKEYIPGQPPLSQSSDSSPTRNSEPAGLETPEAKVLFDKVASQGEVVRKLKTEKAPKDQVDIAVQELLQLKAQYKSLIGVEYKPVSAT
# T3: WRS (Tryptophanyl-tRNA synthetase), purified recombinant (UniProt P23381 1-471, limits assumed)
# T3 construct: also called 트립토파닐-tRNA 합성효소
# T3 sequence (looked up): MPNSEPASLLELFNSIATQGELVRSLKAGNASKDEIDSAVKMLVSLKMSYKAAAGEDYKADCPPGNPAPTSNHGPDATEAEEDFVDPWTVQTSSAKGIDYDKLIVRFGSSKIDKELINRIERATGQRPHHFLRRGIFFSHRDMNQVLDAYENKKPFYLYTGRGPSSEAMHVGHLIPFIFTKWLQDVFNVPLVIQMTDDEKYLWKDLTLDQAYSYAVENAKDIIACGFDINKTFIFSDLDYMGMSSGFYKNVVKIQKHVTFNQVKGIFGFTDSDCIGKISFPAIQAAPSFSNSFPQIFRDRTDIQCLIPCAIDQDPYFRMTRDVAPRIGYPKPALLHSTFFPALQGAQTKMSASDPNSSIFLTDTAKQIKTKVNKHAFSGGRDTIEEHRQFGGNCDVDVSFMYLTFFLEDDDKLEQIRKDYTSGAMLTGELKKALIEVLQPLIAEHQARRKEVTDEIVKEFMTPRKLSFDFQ
# T4: HRS (Histidyl-tRNA synthetase), purified recombinant (UniProt P12081 1-509, limits assumed)
# T4 construct: also called 히스티딜-tRNA 합성효소
# T4 sequence (looked up): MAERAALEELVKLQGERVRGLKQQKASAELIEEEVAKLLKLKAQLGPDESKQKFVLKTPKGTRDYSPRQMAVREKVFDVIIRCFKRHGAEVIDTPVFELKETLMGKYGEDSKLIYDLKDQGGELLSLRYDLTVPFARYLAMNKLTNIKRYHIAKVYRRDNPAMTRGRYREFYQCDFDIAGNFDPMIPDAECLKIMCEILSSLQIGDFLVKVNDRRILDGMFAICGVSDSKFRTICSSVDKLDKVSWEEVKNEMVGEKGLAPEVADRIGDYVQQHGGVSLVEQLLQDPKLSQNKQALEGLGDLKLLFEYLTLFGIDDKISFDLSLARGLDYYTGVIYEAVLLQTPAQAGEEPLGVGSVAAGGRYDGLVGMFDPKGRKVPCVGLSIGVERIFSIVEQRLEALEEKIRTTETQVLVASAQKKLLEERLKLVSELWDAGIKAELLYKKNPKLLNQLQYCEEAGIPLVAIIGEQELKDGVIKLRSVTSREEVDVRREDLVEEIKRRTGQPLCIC
# T5: AIMP1 (Aminoacyl-tRNA-synthetase-interacting multifunctional protein 1), purified recombinant (UniProt Q12904 1-312, limits assumed)
# T5 construct: also called AIMP1(p43); p43
# T5 sequence (looked up): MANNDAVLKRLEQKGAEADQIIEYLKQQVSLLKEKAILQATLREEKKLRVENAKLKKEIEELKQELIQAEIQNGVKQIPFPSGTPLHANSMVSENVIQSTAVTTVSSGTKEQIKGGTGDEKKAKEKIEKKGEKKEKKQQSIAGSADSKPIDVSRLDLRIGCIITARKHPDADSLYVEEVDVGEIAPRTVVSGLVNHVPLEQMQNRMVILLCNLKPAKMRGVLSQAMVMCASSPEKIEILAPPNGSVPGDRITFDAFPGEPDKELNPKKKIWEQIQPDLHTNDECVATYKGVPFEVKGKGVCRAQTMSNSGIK
# T6: AIMP3 (Aminoacyl-tRNA-synthetase-interacting multifunctional protein 3), purified recombinant (UniProt O43324 1-174, limits assumed)
# T6 construct: also called AIMP3(p18); p18
# T6 sequence (looked up): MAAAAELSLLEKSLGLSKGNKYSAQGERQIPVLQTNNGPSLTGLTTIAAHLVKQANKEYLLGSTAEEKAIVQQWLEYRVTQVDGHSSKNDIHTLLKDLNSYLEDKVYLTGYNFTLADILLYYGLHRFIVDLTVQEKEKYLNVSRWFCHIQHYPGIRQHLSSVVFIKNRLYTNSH
# T7: CRS (Cysteinyl-tRNA synthetase), purified recombinant antigen (human, UniProt P49589 1-748, limits assumed)
# T7 construct: also called CRS 항원; 재조합 CRS 표준물질
# T7 sequence (looked up): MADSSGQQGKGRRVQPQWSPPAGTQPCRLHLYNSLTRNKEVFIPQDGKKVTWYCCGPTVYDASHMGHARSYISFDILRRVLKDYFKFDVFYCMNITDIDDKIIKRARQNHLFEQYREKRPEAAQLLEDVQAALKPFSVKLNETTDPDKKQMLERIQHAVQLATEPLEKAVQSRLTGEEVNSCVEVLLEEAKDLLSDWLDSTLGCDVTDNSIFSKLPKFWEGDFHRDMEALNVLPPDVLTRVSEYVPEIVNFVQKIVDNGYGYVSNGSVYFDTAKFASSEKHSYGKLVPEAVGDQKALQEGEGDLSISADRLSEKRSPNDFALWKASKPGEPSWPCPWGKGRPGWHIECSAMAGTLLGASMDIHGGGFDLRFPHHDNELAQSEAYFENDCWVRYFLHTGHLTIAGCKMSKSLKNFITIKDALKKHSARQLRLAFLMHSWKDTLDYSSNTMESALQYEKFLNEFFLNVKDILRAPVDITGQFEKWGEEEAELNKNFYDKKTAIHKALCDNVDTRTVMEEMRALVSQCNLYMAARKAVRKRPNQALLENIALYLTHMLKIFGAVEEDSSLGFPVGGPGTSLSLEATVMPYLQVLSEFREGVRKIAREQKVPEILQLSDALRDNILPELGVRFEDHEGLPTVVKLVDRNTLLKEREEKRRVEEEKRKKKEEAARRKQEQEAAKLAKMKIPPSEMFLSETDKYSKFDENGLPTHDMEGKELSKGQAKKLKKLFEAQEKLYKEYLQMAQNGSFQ
# B1: anti-CRS scFv Biocon-K1 (scFv)
# scFv: EVQLLESGGGLVQPVGSLRLSCAASGFTFSNYAMSWVRQAPGKGLEWVSWIYSKGRSTYYGDSAKGRFTISRDNSKNTLYLQMNSLRAEDTAVYYCAKRDNAFDYWGQGTLVTVSSGGGGSGGGGSGGGGSQSVLTQPPSASGTPGQRVTISCSGSSSNIGNNYVYWYQQLPGTAPKLLIYADSQRPSGVPDRFSGSKSGTSASLAISGLRSEDEADYYCGAWDSSLNGYVFGGGTKLTVL
# notes: It was expressed from pComb3X in the E. coli periplasm, purified on Ni-NTA and detected with anti-HA; Human VH3-23/VL1g framework; also called 항 CRS scFv 항체; 본 발명의 항체
# How the values were obtained:
# [1] = biological target: T1, DRS (Aspartyl-tRNA synthetase), …; test: Luminex multiplex bead assay, antigen coupled to beads, relative to CRS
# [2] = biological target: T2, EPRS WHEP domain (Glutamyl-prolyl tRNA …); test: as above
# [3] = biological target: T3, WRS (Tryptophanyl-tRNA synthetase), …; test: as above
# [4] = biological target: T4, HRS (Histidyl-tRNA synthetase), …; test: as above
# [5] = biological target: T5, AIMP1 …; test: as above
# [6] = biological target: T6, AIMP3 …; test: as above
# [7] = biological target: T7, CRS (Cysteinyl-tRNA synthetase), …; test: SPR (ProteOn XPR36), CRS amine-coupled on GLC chip, scFv 500-30 nM as analyte, 25 C
binder,measurement,setting,value
B1,교차 반응성 (cross-reactivity),[1],≤ 10%
same,교차 반응성 (cross-reactivity),[2],≤ 10%
same,교차 반응성 (cross-reactivity),[3],≤ 10%
same,교차 반응성 (cross-reactivity),[4],≤ 10%
same,교차 반응성 (cross-reactivity),[5],≤ 10%
same,교차 반응성 (cross-reactivity),[6],≤ 10%
same,Kd,[7],0.06 µM
